# Tests used:
# [1] = molecular target: HA of A/Netherlands/219/2003 (H7N7) (influenza A virus (H7N7))
# [2] = molecular target: HA of A/shearwater/Western Australia/2576/1979 (H15N9) (influenza A virus (H15N9))
# [3] = molecular target: HA of A/Indonesia/5/2005 (H5N1) (influenza A virus (H5N1))
# [4] = molecular target: HA of A/Shanghai/2/2013 (H7N9) (influenza A virus (H7N9))
# [5] = molecular target: HA of A/Hong Kong/1073/99 (H9) (influenza A virus (H9))
# [6] = molecular target: HA of A/mallard duck/Astrakhan/263/1982 (H14N5) (influenza A virus (H14N5))
# [7] = molecular target: HA of A/California/04/2009 (H1N1) (influenza A virus (H1N1)) (UniProt P26140); assay: ELISA, recombinant HA
# [8] = molecular target: HA of A/duck/Czechoslovakia/1956 (H4); assay: ELISA, recombinant HA
# [9] = molecular target: HA of A/Hong Kong/1/1968 (H3N2) (influenza A virus (H3N2)) (UniProt Q91MA7)
# [10] = molecular target: HA of A/Singapore/1/1957 (H2) (influenza A virus (H2)) (UniProt Q67333)
substance,measurement,setting,value
rFluA-20 light chain mutant Y49A (antibody),EC50 fold over wild-type rFluA-20,[1],> 100 fold
rFluA-20 light chain mutant Q55A (antibody),EC50 fold over wild-type rFluA-20,[2],> 100 fold
same,EC50,[1],0.17 mg/L
rFluA-20 light chain mutant N53A (antibody),EC50 fold over wild-type rFluA-20,[3],> 100 fold
same,EC50,[2],0.06 mg/L
same,EC50,[4],0.87 mg/L
same,EC50,[1],0.05 mg/L
same,EC50,[5],0.17 mg/L
same,EC50 fold over wild-type rFluA-20,[6],> 100 fold
CR6261 (antibody),EC50,[7],0.012 mg/L
same,EC50,[8],0.023 mg/L
rFluA-20 heavy chain mutant C101A (antibody),EC50 fold over wild-type rFluA-20,[3],> 100 fold
same,EC50,[2],0.11 mg/L
same,EC50 fold over wild-type rFluA-20,[4],> 100 fold
same,EC50,[9],0.13 mg/L
same,EC50,[1],0.17 mg/L
same,EC50 fold over wild-type rFluA-20,[5],> 100 fold
same,EC50,[10],0.44 mg/L
same,EC50 fold over wild-type rFluA-20,[6],> 100 fold

# From patent US20210252150A1
